The values that follow come from article PMC314469, “Protein Interaction Networks by Proteome Peptide Scanning” (PLoS Biology, 2004).

Sequences and labels used below:
T1: Abp1 SH3 (ABP1_YEAST), P15891
T1 chain: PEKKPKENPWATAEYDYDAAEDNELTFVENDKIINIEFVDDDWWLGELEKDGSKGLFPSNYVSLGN

This experiment has as its target T1, Abp1 SH3 (ABP1_YEAST), P15891. As to the kind of experiment: SPOT array.
In turn, LQELKFSPVINKP [YLR022C 137-149] had a normalised SPOT signal, Boehringer light units (BLU); mean over the file's lines of this peptide of 66. The result for LVDPKVDPILLRP [YBL069W 153-165] reads 137.

As for LNLIGRRSASPYRP [YDL033C 6-19], the normalised SPOT signal, Boehringer light units (BLU); mean over the file's lines of this peptide worked out at 144. Molecule LQHAAEPPVEKRP [YDR174W 207-219] had a normalised SPOT signal, Boehringer light units (BLU); mean over the file's lines of this peptide of 54.2. For LSHRLWLYAAPKRP [YMR156C 126-139] the value was 171; for LVSIENAPVSLRP [YGR031W 172-184], 59.6; for LTNLIRNPRFSKP [YHR168W 311-323], 631. Regarding LSKVRGRPMYPRP [YBR083W 422-434], the normalised SPOT signal, Boehringer light units (BLU); mean over the file's lines of this peptide is 382. With LWSWVLGPLLSRP [YOL110W 177-189], the normalised SPOT signal, Boehringer light units (BLU); mean over the file's lines of this peptide came to 120.

With LQVHRDQPREKRP [YDR176W 173-185], the normalised SPOT signal, Boehringer light units (BLU); mean over the file's lines of this peptide is 140. With LWALLQSGRLPQRP [YDR147W 440-453], the normalised SPOT signal, Boehringer light units (BLU); mean over the file's lines of this peptide was found to be 322.

The molecule LNNLLAPPLSPTKP [YDR425W 249-262] gave a normalised SPOT signal, Boehringer light units (BLU); mean over the file's lines of this peptide of 79.6. LYPQGYDPTDPSRP [YDR093W 1465-1478] showed a normalised SPOT signal, Boehringer light units (BLU); mean over the file's lines of this peptide of 57.7.

The molecule LYALVLKPVGKKP [YOR109W 19-31] had a normalised SPOT signal, Boehringer light units (BLU); mean over the file's lines of this peptide of 109. For LNDSMFFPYPFKP [YGL131C 434-446] the value was 50.6. The result for LNALNVNSHAPTKP [YOR059C 245-258] reads 171.

With LRNTTTYKSRPDRP [YBR289W 754-767], the normalised SPOT signal, Boehringer light units (BLU); mean over the file's lines of this peptide was 273. For LVSATAVPAESKP [YPL074W 405-417] the value was 25. As for LLRRNPSPSIVKP [YFL021W 256-268], the normalised SPOT signal, Boehringer light units (BLU); mean over the file's lines of this peptide worked out at 1070. The result for LTEITKLPNITRP [YLR152C 193-205] reads 150.

With LVTPLAGGVTPMKP [YAL054C 478-491], the normalised SPOT signal, Boehringer light units (BLU); mean over the file's lines of this peptide was 93.7. The result for LRQEYSFSLDPDRP [YPR107C 19-32] reads 144; that for LYEQFRNPLRSRP [YDR389W 229-241], 950; that for LQSQFFDSMSPVRP [YGL003C 218-231], 67.6. The result for LMMPVMVPTVYKP [YPR013C 154-166] reads 188.

LSTVNPAPANRKP [YJL005W 199-211] registered a normalised SPOT signal, Boehringer light units (BLU); mean over the file's lines of this peptide of 171. In the case of LLRLRPRPLLLRP [YKR047W 79-91], the normalised SPOT signal, Boehringer light units (BLU); mean over the file's lines of this peptide stood at 249. LNDPTATPFTSRP [YNL091W 1210-1222]: the normalised SPOT signal, Boehringer light units (BLU); mean over the file's lines of this peptide was determined as 130.

On to LQEDLHDPLEFKP [YKL105C 259-271], for which the normalised SPOT signal, Boehringer light units (BLU); mean over the file's lines of this peptide was determined as 74.4. For LNVSAPVVADPTRP [YNR014W 72-85] the value was 156.

As for LYMDKFIKLIPMRP [YDR479C 283-296], the normalised SPOT signal, Boehringer light units (BLU); mean over the file's lines of this peptide was 4270.

As to LWTNDDYLQQPARP [YER136W 199-212], the normalised SPOT signal, Boehringer light units (BLU); mean over the file's lines of this peptide stood at 30.

In the case of LSKKENKVGSPEKP [YOR244W 327-340], the normalised SPOT signal, Boehringer light units (BLU); mean over the file's lines of this peptide was found to be 32.6. As to LRLKKSPLKVPSRP [YOR081C 655-668], the normalised SPOT signal, Boehringer light units (BLU); mean over the file's lines of this peptide is 452. The result for LWQYVTDPSYKKP [YBR241C 284-296] reads 48.4. The result for LTSGGSLPVSPRP [YOL061W 323-335] reads 60; that for LNLQHQLEYWPHRP [YLR436C 877-890], 97.9; that for LWQRKKLGEAPIKP [YLR129W 775-788], 29.7. In turn, LPQDYYDPSFMRP [YIL108W 388-400] registered a normalised SPOT signal, Boehringer light units (BLU); mean over the file's lines of this peptide of 153. Turning to LNSSVVVPKTTKP [YIL168W 85-97], the normalised SPOT signal, Boehringer light units (BLU); mean over the file's lines of this peptide turned out to be 114. For LSYYLAISTNPGRP [YOL003C 52-65] the value was 40.5; for LTTNKETPANAKP [YAR044W 406-418], 111. Turning to LQPQNQAPLEPLKP [YIR006C 225-238], the normalised SPOT signal, Boehringer light units (BLU); mean over the file's lines of this peptide came to 25.4. Turning to LSQLKRFERSPGRP [YFL007W 20-33], the normalised SPOT signal, Boehringer light units (BLU); mean over the file's lines of this peptide was found to be 524. Molecule LSRKESKFGTPEKP [YBL052C 441-454] yielded a normalised SPOT signal, Boehringer light units (BLU); mean over the file's lines of this peptide of 75.9. For LTLWSQPPDVLKP [YLL031C 923-935] the value was 104; for LTFANVSFSYPSRP [YKL209C 357-370], 100.

As to LSKNWELPQRLKP [YOL028C 50-62], the normalised SPOT signal, Boehringer light units (BLU); mean over the file's lines of this peptide stood at 1040.

As to LVFELDENLKPSKP [YKL152C 212-225], the normalised SPOT signal, Boehringer light units (BLU); mean over the file's lines of this peptide turned out to be 105. For LSLNKAFEKVPRRP [YNL068C 392-405] the value was 854; for LLSKVHDPNIPLRP [YGR184C 639-652], 135; for LTSLPVPPPPVRP [YDL140C 236-248], 68.5. With LQKKNDRPSPLKP [YKL101W 858-870], the normalised SPOT signal, Boehringer light units (BLU); mean over the file's lines of this peptide is 450. In turn, LQQEQNTPPLPPKP [YCL008C 171-184] yielded a normalised SPOT signal, Boehringer light units (BLU); mean over the file's lines of this peptide of 82.6.
